The values that follow come from patent US20130217633A1.

Test [1] deals with wild type Bcl-2 (overexpressed in WEHI7.2 cells) (UniProt P10415). The test is described as follows: cell-based or functional assay.
The target of test [2] is Bcl-2 of primary chronic lymphocytic leukemia (CLL) cells (human) (UniProt P10415). The test is described as follows: cell-based or functional assay.
Sequence of Bcl-2 of primary chronic lymphocytic leukemia (CLL) cells (human) (P10415 whole entry): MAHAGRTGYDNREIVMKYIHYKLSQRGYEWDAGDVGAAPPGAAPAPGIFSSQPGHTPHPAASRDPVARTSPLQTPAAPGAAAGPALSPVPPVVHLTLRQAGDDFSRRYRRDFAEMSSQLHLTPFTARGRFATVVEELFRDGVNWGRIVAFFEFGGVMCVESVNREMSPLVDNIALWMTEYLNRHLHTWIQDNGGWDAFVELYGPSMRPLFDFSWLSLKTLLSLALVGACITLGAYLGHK

Sequence of wild type Bcl-2 (overexpressed in WEHI7.2 cells) (P10415 whole entry): as above

In test [1], “TAT-IDP (IP3R-derived peptide fused with the cell-penetrating peptide of HIV TAT)” showed a Ca^2+ spikes per cell (single cell Ca2+ imaging, Bcl-2-positive WEHI7.2 cells) (Ca^2+ spikes per cell) of 6; a percentage of Bcl-2-positive WEHI7.2 cells with a sustained pattern of Ca^2+ oscillations (three or more peaks) of 36%; a percentage of Bcl-2-positive WEHI7.2 cells with one or two isolated Ca^2+ oscillations of 22%. The same substance displayed a percentage of primary CLL cells with Ca2+ elevation in test [2] of 26%.
